{
  "source": "paper PMC8277531",
  "about": "(Cell, 2021)",
  "binders": {"B1": {"name": "Fab fragment derived from mouse monoclonal IgG 4G10 (Fab, V domains shown)", "VH": "EVQLQQSGAELVRPGASVKLSCTASGFKIKDDYIHWVKQRPEQGLEWIGRIDPANGHTRYAPKFQDKATITADTSSNTAYLQLSSLTSEDTAVYYCTRYNDYDAFYFDYWGQGTTLTVSS", "VL": "DIQMTQTTSSLSASLGDRVTISCRASQDIRNYLNWYQQKPDGTVKLLIYYTSRLHSGVPSRFSGSGSGTDYSLTISNLEQEDIATYFCQQTNTLPWTFGGGTKVEIK"}},
  "target": "T1, chicken Scap-3xFLAG (pEZT-cScap-3xFLAG WT) expressed in HEK 293T cells (Gallus gallus)",
  "T1 chain": "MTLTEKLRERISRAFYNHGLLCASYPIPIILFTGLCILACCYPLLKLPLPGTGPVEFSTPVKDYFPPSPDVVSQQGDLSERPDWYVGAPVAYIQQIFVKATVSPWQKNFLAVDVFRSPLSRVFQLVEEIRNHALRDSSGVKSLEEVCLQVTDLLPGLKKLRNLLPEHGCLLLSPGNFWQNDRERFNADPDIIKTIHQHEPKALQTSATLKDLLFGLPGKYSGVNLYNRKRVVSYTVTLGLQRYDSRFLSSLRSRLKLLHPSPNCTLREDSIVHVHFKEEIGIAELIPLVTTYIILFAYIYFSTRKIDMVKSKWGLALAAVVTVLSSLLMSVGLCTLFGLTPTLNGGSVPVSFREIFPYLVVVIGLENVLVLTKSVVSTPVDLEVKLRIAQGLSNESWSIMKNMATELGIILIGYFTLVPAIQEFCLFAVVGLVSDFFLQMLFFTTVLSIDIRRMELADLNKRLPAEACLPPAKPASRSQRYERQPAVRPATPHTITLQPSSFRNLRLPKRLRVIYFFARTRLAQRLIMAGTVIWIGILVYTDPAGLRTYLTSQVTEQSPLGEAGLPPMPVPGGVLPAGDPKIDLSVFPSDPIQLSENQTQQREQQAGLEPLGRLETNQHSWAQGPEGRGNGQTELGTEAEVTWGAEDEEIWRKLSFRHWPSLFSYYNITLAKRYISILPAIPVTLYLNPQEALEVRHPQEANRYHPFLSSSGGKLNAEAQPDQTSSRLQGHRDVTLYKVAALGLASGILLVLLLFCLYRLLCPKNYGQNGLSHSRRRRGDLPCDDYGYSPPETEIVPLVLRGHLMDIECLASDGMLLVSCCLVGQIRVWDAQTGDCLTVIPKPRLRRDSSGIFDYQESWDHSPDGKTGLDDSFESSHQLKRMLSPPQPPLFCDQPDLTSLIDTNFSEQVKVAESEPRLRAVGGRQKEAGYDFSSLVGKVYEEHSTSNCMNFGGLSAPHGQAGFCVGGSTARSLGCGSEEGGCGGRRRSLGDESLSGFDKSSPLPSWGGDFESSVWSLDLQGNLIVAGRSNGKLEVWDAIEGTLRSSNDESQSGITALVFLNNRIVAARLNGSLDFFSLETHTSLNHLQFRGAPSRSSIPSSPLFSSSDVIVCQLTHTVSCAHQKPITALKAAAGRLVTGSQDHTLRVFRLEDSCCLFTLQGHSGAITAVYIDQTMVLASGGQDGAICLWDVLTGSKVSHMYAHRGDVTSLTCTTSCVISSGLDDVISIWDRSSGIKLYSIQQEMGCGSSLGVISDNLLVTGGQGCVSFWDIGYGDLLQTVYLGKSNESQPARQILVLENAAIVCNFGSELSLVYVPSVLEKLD",
  "test": "pull-down",
  "data": [
    {"binder": "B1", "values": [
      {"measurement": "binding result", "value": "binds"}
    ]}
  ]
}
